The supplement of paper PMC7877785
± gives the uncertainty stated by the source.

Assay: self-splicing fitness, log relative to wild type (ln ratio); higher = more splicing; Tetrahymena group I intron in knt gene, E. coli kanamycin selection, DiMSum; sequences stand for … in CUCUCU…GGAGGGAAAAGUUAUCAGGCAUGCACCUGGUAGCUAGUCUUUAAACCAAUAGAUUGCAUCGGUUUAAAAGGCAAGACCGUCAAAUUGCGGGAAAGGGGUCAACAGCCGUUCAGUACCAAGUCUCAGGGGAAACUUUGAGAUGGCCUUGCAAAGGGUAUGGUAAUAAGCUGACGGACAUGGUCCUAACCACGCAGCCAAGUCCUAAGUCAACAGAUCUUCUGUUGAUAUGGAUGCAGUUCACAGACUAAAUGUCGGUCGGGGAAGAUGUAUUCUUCUCAUAAGAUAUAGUCGGACCUCUCCUUAAUGGGAGCUAGCGGAUGAAGUGAUGCAACACUGGAGCCGCUGGGAACUAAUUUGUAUGCGAAAGUAUAUUGAUUAGUUUUGGAGUACUCGUGGUCG
In short: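 DiMSum derived fitness as the error-weighted combination of fold changes across replicates, kanamycin versus no kanamycin, normalised to wild type. E. coli BL21(DE3) held the library, which randomised all eight P1ex-region intron nucleotides within the knt kanamycin-resistance gene on pET-22b(+). Six replicate transformations grew overnight at 37°C or 30°C on LB agar with or without 25 μg/mL kanamycin, also containing 100 μg/mL carbenicillin, 50 μM IPTG and 0.2% rhamnose, and pooled colonies were amplicon-sequenced on an Illumina HiSeq 2500.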

Row | Sequence | self-splicing fitness (ln) (30 °C) | self-splicing fitness (ln) (37 °C)
1 | CGCGAGCAAUAUUACGUUGC | -3.68 ± 0.3 | 
2 | CGCGAGCAAUAUUACGUUUG | -4.03 ± 0.21 | -1.91 ± 0.18
3 | CGCUAGCAAUAUUACGAAGG | -1.06 ± 0.098 | -0.735 ± 0.13
4 | CGCUAGCAAUAUUACGAAUC | -3.64 ± 0.21 | -0.947 ± 0.15
5 | CGCUAGCAAUAUUACGACUA | -2.81 ± 0.16 | -2.52 ± 0.23
6 | CGCUAGCAAUAUUACGACUG | -0.448 ± 0.05 | 0.456 ± 0.068
7 | CGCUAGCAAUAUUACGAUCC | -2.01 ± 0.37 | -1.74 ± 0.42
8 | CGCUAGCAAUAUUACGCACG | -2.53 ± 0.17 | -2.06 ± 0.24
9 | CGCUAGCAAUAUUACGCAGG | -3.17 ± 0.18 | -1.83 ± 0.23
10 | CGCUAGCAAUAUUACGCAUA | -3.26 ± 0.21 | -2.36 ± 0.21
11 | CGCUAGCAAUAUUACGCCAC | -3.86 ± 0.43 | -1.09 ± 0.26
12 | CGCUAGCAAUAUUACGCCGC | -2.55 ± 0.18 | 
13 | CGCUAGCAAUAUUACGGAGU | -3.65 ± 0.27 | -2.42 ± 0.25
14 | CGCUAGCAAUAUUACGGGGA | -2.93 ± 0.32 | -1.95 ± 0.32
15 | CGCUAGCAAUAUUACGGGUA | -0.542 ± 0.11 | -0.011 ± 0.12
16 | CGCUAGCAAUAUUACGGGUG | -3.31 ± 0.12 | -2.83 ± 0.13
17 | CGCUAGCAAUAUUACGGUGU | -3.54 ± 0.15 | -2.22 ± 0.21
18 | CGCUAGCAAUAUUACGUAAC | -4.07 ± 0.31 | -2.87 ± 0.38
19 | CGCUAGCAAUAUUACGUAGG | -1.4 ± 0.058 | -0.925 ± 0.081
20 | CGCUAGCAAUAUUACGUCUC | -2.62 ± 0.48 | -1.46 ± 0.23
21 | CGCUAGCAAUAUUACGUCUG | -0.182 ± 0.078 | 0.774 ± 0.089
22 | CGCUAGCAAUAUUACGUGAA | -3.59 ± 0.16 | -2.34 ± 0.087
23 | CGCUAGCAAUAUUACGUUCU | -2.16 ± 0.11 | -1.67 ± 0.12
24 | CGCUAGCAAUAUUACGUUUA | -3.37 ± 0.23 | -2.56 ± 0.18

Row | Sequence | self-splicing fitness (ln) (30 °C) | self-splicing fitness (ln) (37 °C)
25 | CGCUAGCAAUAUUACGUUUU | -3.8 ± 0.16 | -1.68 ± 0.13
26 | CGGAAGCAAUAUUACGAACC |  | -1.43 ± 0.41
27 | CGGAAGCAAUAUUACGAAGA | -3.45 ± 0.4 | -3.08 ± 0.47
28 | CGGAAGCAAUAUUACGAAUG | -0.506 ± 0.079 | -0.137 ± 0.12
29 | CGGAAGCAAUAUUACGACUA | -0.269 ± 0.1 | 0.239 ± 0.1
30 | CGGAAGCAAUAUUACGAGAA | -2.88 ± 0.48 | -2.03 ± 0.24
31 | CGGAAGCAAUAUUACGAGUU | -3.29 ± 0.2 | -2.49 ± 0.2
32 | CGGAAGCAAUAUUACGAUCG | -1.86 ± 0.1 | -1.07 ± 0.14
33 | CGGAAGCAAUAUUACGAUGA | -1.91 ± 0.11 | -0.379 ± 0.096
34 | CGGAAGCAAUAUUACGCAGA | -1.98 ± 0.33 | -2.01 ± 0.3
35 | CGGAAGCAAUAUUACGCAGC | -3.56 ± 0.37 | -1.49 ± 0.27
36 | CGGAAGCAAUAUUACGCAGU | -2.73 ± 0.14 | -2.25 ± 0.21
37 | CGGAAGCAAUAUUACGCCGG | -0.726 ± 0.15 | 0.698 ± 0.19
38 | CGGAAGCAAUAUUACGCUAC | -2.38 ± 0.24 | -3.01 ± 0.47
39 | CGGAAGCAAUAUUACGCUAG | -1.05 ± 0.091 | -1.6 ± 0.19
40 | CGGAAGCAAUAUUACGCUGG | -1.62 ± 0.11 | -1.15 ± 0.17
41 | CGGAAGCAAUAUUACGGAAG |  | -1.5 ± 0.33
42 | CGGAAGCAAUAUUACGGAAU | -2.11 ± 0.16 | -1.08 ± 0.19
43 | CGGAAGCAAUAUUACGGAUC | -3.97 ± 0.37 | -2.04 ± 0.27
44 | CGGAAGCAAUAUUACGGCAC | -2.4 ± 0.25 | -1.75 ± 0.38
45 | CGGAAGCAAUAUUACGGCCA | 0.0398 ± 0.097 | 0.672 ± 0.16
46 | CGGAAGCAAUAUUACGGUCC | -3.37 ± 0.27 | -0.831 ± 0.13
47 | CGGAAGCAAUAUUACGUGAU | -3.44 ± 0.12 | -1.96 ± 0.12
